Experimental data as given in publication PMC1885668.
Residue numbers refer to the chain shown, from its start.

Key:
TREX2BD = target: T1, TREX2BD (human, UniProt Q9BQ50 1-236, R163A;R165A;R167A); assay: SPR
T1 sequence: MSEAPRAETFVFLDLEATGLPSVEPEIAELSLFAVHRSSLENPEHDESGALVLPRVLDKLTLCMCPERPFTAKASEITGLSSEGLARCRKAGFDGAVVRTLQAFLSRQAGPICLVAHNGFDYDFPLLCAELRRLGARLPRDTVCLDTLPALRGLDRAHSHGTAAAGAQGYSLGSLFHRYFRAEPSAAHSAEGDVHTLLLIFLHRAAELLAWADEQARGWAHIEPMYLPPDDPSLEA

TREX2DD = target: T2, TREX2DD (human, UniProt Q9BQ50 1-236, E29A;K59A;D94A;R107A;E191A); assay: SPR
T2 sequence: T1 sequence with E29A, K59A, D94A, R107A, A163R, A165R, A167R, E191A

B1: Biotin-mTX1-322 (24-mer) (ssDNA)
DNA: GTATGAGCTGCAGTTCCTCAGCAT
binding result (TREX2BD): no binding | binding result (TREX2DD): no binding
